One block for each binder: values may come before it.
Columns and labels:
Details in all cases: both partners purified
[1] = target: T1, NOT10:GST-NOT11 complex (Hs NOT10-L with GST-NOT11-C) (human, UniProt Q9H9A5 25-707; Q9UKZ1 257-498); assay: pull-down; purified proteins; GST-NOT11-C alone or the NOT10:GST-NOT11 complex as bait, NOT1-N as prey (Fig. 3g)
T1 construct: human NOT10 (CNOT10), NOT10-L, residues D25–Q707, from pnYC-vM with a TEV-cleavable MBP tag; human NOT11 (CNOT11), NOT11-C, residues D257–D498; also called NOT10:NOT11 heterodimer; source: E. coli BL21 (DE3) Star, co-expressed, purified (glutathione agarose, TEV cleavage of MBP, HiTrap Heparin, Superdex 200); not shown: MBP, N-terminal, cleaved; GST, N-terminal, kept

[2] = target: T2, MBP-Hs NOT10-L (residues D25–Q707) (human, UniProt Q9H9A5 25-707); assay: pull-down; GST pulldown with recombinant proteins; GST-NOT11 constructs as bait, MBP-tagged NOT10 constructs as prey (Fig. 3b–f; human and Drosophila)
T2 construct: human NOT10 (CNOT10), residues D25–Q707; The MBP tag is HRV3C-cleavable (plasmid pnYC-pM); no cleavage step is described; also called isolated NOT10; source: E. coli BL21 (DE3) Star, purified (amylose resin, HiTrap Q, Superdex 200)

[3] = target: T3, MBP-Hs NOT10-C (residues T351–Q707) (human, UniProt Q9H9A5 351-707); assay: as above
T3 construct: human NOT10 (CNOT10), residues T351–Q707; The MBP tag is HRV3C-cleavable; no cleavage step is described; also called C-terminal portion of NOT10; source: E. coli BL21 (DE3) Star, purified (amylose resin, HiTrap Q, Superdex 200)
T3 sequence (Q9H9A5 351-707): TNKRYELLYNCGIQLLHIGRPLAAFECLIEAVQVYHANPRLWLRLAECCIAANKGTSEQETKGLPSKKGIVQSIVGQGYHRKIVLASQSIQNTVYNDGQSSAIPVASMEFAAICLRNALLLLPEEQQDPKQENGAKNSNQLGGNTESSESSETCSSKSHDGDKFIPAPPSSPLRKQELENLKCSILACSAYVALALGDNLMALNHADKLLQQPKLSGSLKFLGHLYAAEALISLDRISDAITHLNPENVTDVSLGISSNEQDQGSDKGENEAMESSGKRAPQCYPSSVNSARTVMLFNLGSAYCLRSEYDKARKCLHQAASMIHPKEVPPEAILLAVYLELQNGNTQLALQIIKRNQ

T1 sequence (Q9H9A5 25-707, chain 1 of 2, other chains not shown): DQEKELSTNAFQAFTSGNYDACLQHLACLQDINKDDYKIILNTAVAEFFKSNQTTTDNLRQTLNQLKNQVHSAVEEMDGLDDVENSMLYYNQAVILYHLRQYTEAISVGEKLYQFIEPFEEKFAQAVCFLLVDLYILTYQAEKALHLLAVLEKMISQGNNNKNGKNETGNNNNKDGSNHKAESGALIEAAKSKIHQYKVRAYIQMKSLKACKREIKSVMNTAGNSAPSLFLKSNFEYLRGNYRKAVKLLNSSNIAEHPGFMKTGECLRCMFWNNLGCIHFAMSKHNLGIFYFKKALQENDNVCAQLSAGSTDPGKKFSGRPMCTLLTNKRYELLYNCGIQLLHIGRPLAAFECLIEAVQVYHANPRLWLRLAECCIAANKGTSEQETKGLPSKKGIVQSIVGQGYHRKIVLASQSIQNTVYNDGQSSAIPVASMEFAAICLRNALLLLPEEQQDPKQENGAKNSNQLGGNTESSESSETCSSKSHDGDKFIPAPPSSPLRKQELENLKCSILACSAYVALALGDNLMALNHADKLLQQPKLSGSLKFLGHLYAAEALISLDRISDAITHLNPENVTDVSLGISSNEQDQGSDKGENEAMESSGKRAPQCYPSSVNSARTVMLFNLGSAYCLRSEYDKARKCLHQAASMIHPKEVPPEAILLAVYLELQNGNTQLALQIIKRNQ
T2 sequence (Q9H9A5 25-707): as the sequence (Q9H9A5 25-707, chain 1 of 2, other chains not shown) above

binding result [1]: binds
B1: Hs NOT1-N (residues D4–N682) (domain or fragment, human, UniProt A5YKK6 4-682, looked up)
chain: DSLSLALSQISYLVDNLTKKNYRASQQEIQHIVNRHGPEADRHLLRCLFSHVDFSGDGKSSGKDFHQTQFLIQECALLITKPNFISTLSYAIDNPLHYQKSLKPAPHLFAQLSKVLKLSKVQEVIFGLALLNSSSSDLRGFAAQFIKQKLPDLLRSYIDADVSGNQEGGFQDIAIEVLHLLLSHLLFGQKGAFGVGQEQIDAFLKTLRRDFPQERCPVVLAPLLYPEKRDILMDRILPDSGGVAKTMMESSLADFMQEVGYGFCASIEECRNIIVQFGVREVTAAQVARVLGMMARTHSGLTDGIPLQSISAPGSGIWSDGKDKSDGAQAHTWNVEVLIDVLKELNPSLNFKEVTYELDHPGFQIRDSKGLHNVVYGIQRGLGMEVFPVDLIYRPWKHAEGQLSFIQHSLINPEIFCFADYPCHTVATDILKAPPEDDNREIATWKSLDLIESLLRLAEVGQYEQVKQLFSFPIKHCPDMLVLALLQINTSWHTLRHELISTLMPIFLGNHPNSAIILHYAWHGQGQSPSIRQLIMHAMAEWYMRGEQYDQAKLSRILDVAQDLKALSMLLNGTPFAFVIDLAALASRREYLKLDKWLTDKIREHGEPFIQACMTFLKRRCPSILGGLAPEKDQPKSAQLPPETLATMLACLQACAGSVSQELSETILTMVANCSNVMN
notes: human NOT1 (CNOT1), residues D4–N682; The purification of NOT1-N is not described; source: E. coli BL21 (DE3) Star, purified

binding result [2]: binds | binding result [3]: binds
B2: GST-Hs NOT11-C (residues D257–D498) (domain or fragment)
chain: not shown
notes: human NOT11 (CNOT11), residues D257–D498; The GST tag is HRV3C-cleavable (plasmid pnEA-pG); also called GST-NOT11-C; NOT11 construct lacking the NOT11N domain; source: E. coli BL21 (DE3) Star, purified (glutathione agarose, HiTrap Q, Superdex 200); not shown: GST, N-terminal, kept

Reference: paper PMC10352241, “Structure and assembly of the NOT10:11 module of the CCR4-NOT complex” (Communications Biology, 2023)
